# Measurements taken from patent publication US20160304615A1 (Regeneron, published 2016).
# B1: H1H1911N (antibody, human IgG1, V domains shown)
# VH: QVQLVESGGGVVQPGRSLRLSCAASGFTFSRYGIHWVRQAPGKGLEWVAVIWHDGSNKYYADSVKGRFTISRDNSKNTLYLQMTSLRAEDTAVYYCARDGLEIRDHYYYGMDVWGQGTTVTVSS
# VL: DIQMTQSPSTLSASVGDRVTITCRASQSTSSWLAWYQQKPGKAPTLLIYKASSLESGVPSKFSGSGSGTEFTLTISSLQPDDFATYYCQQYNRYSRTFGQGTKVEIK
# notes: Human IgG1 Fc; also called H2M1911N (same variable domains)
# B2: H1H1863N2(Fuc+) (antibody, human IgG1, V domains shown)
# VH: EVQLVESGGGLVQPGGSLRLSCAASGFPFSSYDMHWVRQATGKGLEWVSAIGTAGATYYPGSVKGRFTISRENAKNSLYLQMNSLRAGDTAVYYCARGDYVWGTYRPLFDYWGQGTLVTVSS
# VL: DIQLTQSPSFLSASVGDRVTITCWASQGINNYLAWYQQKPGKAPKLLIYAASTLQTGVPSRFSGSGSGTEFTLTISSLQPEDFATYYCQQLNSYPLTFGGGTKVEIK
# notes: the numerical identifier ties them; also called H1H863N2; H1H863N2(Fuc+)
# B3: H1H1912N (antibody, human IgG1, V domains shown)
# VH: EVQLVESGGGLVQPGRSLRLSCAASGFTFDDYAMHWVRQVPGKGLEWVSGISWNSGSIGYADSVKGRFTISRDNAKNSLYLQMNSLRAEDTALYYCAKDIHDYGKDYYYYYGMDVWGQGTTVTVSS
# VL: EIALTQSPGTLSLSPGERATLSCRASQSVSSTYLAWYQQKPGQAPRLLIYGASSRATGIPDRFSGSGSGTDFTLTISRLEPEDFAVYYCQQYDSSPITFGQGTRLEIK
# notes: Human IgG1 Fc; also called H2M1912N (same variable domains)
# Experiments:
# [1] = target: T1, full-length hEGFRvIII on cells (human, UniProt P00533 298-1210); experiment: cell-based or functional assay
# [2] = target: T2, wild-type human EGFR on cells (human, UniProt P00533 25-1210); experiment: FACS, A431 cells, PE secondary antibody
# T2 construct: Stands for transfected HEK293/hEGFRwt, endogenous EGFR of A431 and of parental HEK293 cells, and human EGFR of hEGFR mice; the cell line is named under assay; also called EGFRwt; hEGFRwt
# Protocol: (§1) To determine the specificity of the anti-EGFRvIII mAbs, their binding to HEK293, HEK293 cells expressing EGFRvIII (HEK293/EGFRvIII) and A431 cells, was analyzed by fluorescence activated cell sorting (FACS). HEK293/EGFRvIII cells were prepared by transfecting HEK293 cells with neomycin resistant DNA vectors constitutively expressing full-length hEGFRvIII (SEQ ID NO:147) using LIPOFECTAMINE™ 2000 transfection reagent (INVITROGEN™). At two days post-transfection, cells were placed under G418 selection for approximately two weeks. Populations positively expressing EGFRvIII were isolated via fluorescence activated cell sorting (FACS). The HEK293 cells expressing ˜3×10⁶ copies of EGFRvIII per cell were used in the experiment. […] In another set of experiment, anti-EGFRvIII antibodies were directly conjugated via their lysine residues with the fluorescent dye, ALEXA FLUOR® 488 Dye (INVITROGEN™), thereby eliminating the step using the secondary antibody. […] Controls I, II, III, IV and V are described above. MFI: Mean Fluorescence Intensity.
# [3] = target: T2, wild-type human EGFR on cells; experiment: FACS, A431 cells, directly labeled antibody
# Protocol: as §1
# EGFR-mmh = target: T3, EGFR-mmh (human, UniProt P00533 25-647, limits assumed); experiment: ELISA; ELISA, 25 C, EGFR-mmh coated on the plate
# T3 construct: Soluble monomeric protein; also called hEGFR-mmh
# Source text: (§2) To further characterize anti-hEGFRvIII mAbs, their binding specificity was examined by ELISA. […] Also, coated was an irrelevant peptide (control peptide) with or without biotin at its N-terminal. […] The plates were then washed and bound anti-EGFRvIII mAbs were detected with anti-human Fc antibodies conjugated with horse-radish peroxidase (HRP). […] Data analysis used a sigmoidal dose-response model within PRISM™ software.
# [4] = target: T1, full-length hEGFRvIII on cells; experiment: FACS, HEK293/EGFRvIII cells, PE secondary antibody
# Protocol: as §1
# EGFRvIII-mmh [5] = target: T4, EGFRvIII-mmh (human, UniProt P00533 298-647, limits assumed); experiment: ELISA; ELISA, 25 C, EGFRvIII-mmh coated on the plate
# T4 construct: Soluble monomeric protein; also called hEGFRvIII-mmh; hEGFRvIII.mmh
# Source text: as §2
# [6] = target: T1, full-length hEGFRvIII on cells; experiment: FACS, HEK293/EGFRvIII cells, directly labeled antibody
# Protocol: as §1
# EGFR-mFc = target: T5, EGFR-mFc (human); experiment: SPR 37C, receptor-capture; 37 C, receptor-capture format (EGFR-mFc captured)
# T5 construct: Soluble dimeric protein
# Protocol: (§3) Measurements were conducted on a T100 BIACORE™ instrument. […] In the receptor-capture format, either EGFRvIII-mFc or EGFR-mFc, was captured on the BIACORE™ chip and the respective antibodies flowed over. Kinetic association (kₐ) and dissociation (kd) rate constants were determined by processing and fitting the data to a 1:1 binding model using Scrubber 2.0 curve fitting software. Binding dissociation equilibrium constants (KD) and dissociative half-lives (t_{1/2}) were calculated from the kinetic rate constants as: KD (M)=kd/kₐ; and t₁₁₂ (min)=ln2/(60*kd).
# EGFRvIII-mFc [7] = target: T6, EGFRvIII-mFc (human); experiment: SPR 37C, receptor-capture; 37 C, receptor-capture format (EGFRvIII-mFc captured)
# T6 construct: Soluble dimeric protein
# Protocol: as §3
# EGFRvIII-mFc [8] = target: T6, EGFRvIII-mFc; experiment: SPR 37C, mAb-capture
# EGFRvIII-mFc [9] = target: T6, EGFRvIII-mFc; experiment: SPR 37C, receptor-capture
# Protocol: as §3
# EGFRvIII-mmh [10] = target: T4, EGFRvIII-mmh; experiment: ELISA
# Source text: as §2
# EGFRvIII-mmh [11] = target: T4, EGFRvIII-mmh; experiment: SPR 37C, mAb-capture
binder,measurement,setting,value
B1,"Fluorescent Intensity of vesicles 4° C., Mean",[1],29800
same,"Fluorescent Intensity of vesicles 37° C., Mean",[1],280000
same,A431 MFI,[2],3140 MFI
same,Fold Above Background,[2],2.2 fold
same,A431 MFI,[3],16000 MFI
same,Fold Above Background,[3],2.4 fold
same,EC50,EGFR-mmh,9.06 nM
same,HEK293/EGFRvIII MFI,[4],107000 MFI
same,Ratio (EGFRvIII MFI/parental MFI),[4],59.1
same,EC50,EGFRvIII-mmh [5],0.0748 nM
same,HEK293/EGFRvIII MFI,[6],55100 MFI
same,Ratio (EGFRvIII MFI/parental MFI),[6],15.3
same,Kd,EGFR-mFc,224 nM
same,T½,EGFR-mFc,7 min
same,koff,EGFR-mFc,0.00174 s⁻¹
same,kon,EGFR-mFc,7770 M⁻¹ s⁻¹
same,Kd,EGFRvIII-mFc [7],19.5 nM
same,T½,EGFRvIII-mFc [7],18 min
same,koff,EGFRvIII-mFc [7],0.000643 s⁻¹
same,kon,EGFRvIII-mFc [7],32900 M⁻¹ s⁻¹
B2,T½,EGFRvIII-mFc [8],14 min
same,T½,EGFRvIII-mFc [9],56 min
B3,EC50,EGFRvIII-mmh [10],0.0118 nM
same,Kd,EGFRvIII-mmh [11],899 nM
same,T½,EGFRvIII-mmh [11],0.7 min
same,koff,EGFRvIII-mmh [11],0.0164 s⁻¹
same,kon,EGFRvIII-mmh [11],18300 M⁻¹ s⁻¹
same,Kd,EGFRvIII-mFc [8],47.7 nM
same,T½,EGFRvIII-mFc [8],12 min
same,koff,EGFRvIII-mFc [8],0.000971 s⁻¹
same,kon,EGFRvIII-mFc [8],20400 M⁻¹ s⁻¹
same,"Fluorescent Intensity of vesicles 4° C., Mean",[1],4910
same,"Fluorescent Intensity of vesicles 37° C., Mean",[1],370000
same,Kd,EGFRvIII-mFc [9],5.4 nM
same,T½,EGFRvIII-mFc [9],22 min
same,koff,EGFRvIII-mFc [9],0.000537 s⁻¹
same,kon,EGFRvIII-mFc [9],99000 M⁻¹ s⁻¹
same,A431 MFI,[3],14300 MFI
same,Fold Above Background,[3],2.1 fold
same,EC50,EGFR-mmh,0.0405 nM
same,HEK293/EGFRvIII MFI,[6],122000 MFI
same,Ratio (EGFRvIII MFI/parental MFI),[6],32.7
same,Kd,EGFR-mFc,22.9 nM
same,T½,EGFR-mFc,13 min
same,koff,EGFR-mFc,0.000914 s⁻¹
same,kon,EGFR-mFc,39900 M⁻¹ s⁻¹
